How the values were obtained:
[1] = system: tibialis anterior (TA) muscle; assay: In vivo myoblast dispersal assay, tdTomato myoblasts into TA of C57BL/6 mice; design: species or system mouse; conditions: myoblasts treated 3 h, transplanted into TA of immunosuppressed C57BL/6 mice; 7 days; vs Veh.
Experimental: The duration of effects on cell migration were tested by loading intracellular stores with Wnt7a. tdTomato-expressing primary myoblasts, derived from tamoxifen treated Pax7-CreER; R26R-tdTomato mice (Yin et al., 2013a) were exposed to Wnt7a for 3 h; then the cells were washed and transplanted into the tibialis anterior (TA) muscle of immunosuppressed C57BL/6 mice (FIG. 5A). The myoblasts were co-injected with fluorescent microspheres to identify the injection site in subsequent analyses. 7 days later the mice were sacrificed and the behavior of the transplanted cells in the tissue was analyzed by scoring the number of tdTomato-expressing myofibers that were generated by fusion events with the donor cells. Transplantation of zsGreen-expressing satellite cells or myoblasts into mdx mice was performed as previously described (Bentzinger et al., 2013c). Before transplantation the cells were treated for 3 h with Wnt7a, Wnt5a, or Wnt3a (R&D Systems) at a concentration of 50 ng/mL for freshly isolated satellite cells or with 100 ng/mL for cultured cells. Myoblasts expressing tdTomato were transplanted into uninjured muscles of C57BL/6 mice that were implanted with an osmotic pump (Alzet) delivering FK506 (Sigma) at 2.5 mg/kg/day 3 days prior to the transplantations. […]

[2] = system: C2C12 cells; assay: Morphological quantification of triangular polarized C2C12 cells; format: cell-based
Excerpt: Cell migration is typically accompanied by cytoskeletal polarization leading to a distinctive triangular cell shape.
Fzd7-YFP was expressed in myogenic cells and induced polarization by 130% (FIG. 1A and FIG. 9A). […] The majority of Fzd7-YFP localized to small intracellular vesicles associated with the tubulin cytoskeleton in C2C12 cells (FIG. 1B). By contrast, no such localization could be observed for YFP alone (FIG. 9B).
For myoblast culture, satellite cells were FACS purified as described (Bentzinger et al., 2013c) and plated on Collagen-coated dishes (BD Biosciences) in Ham's F10 medium supplemented with 20% FBS and 5 ng/mL of basic FGF (Millipore). C2C12 cells and human myoblasts were cultured as previously described (von Maltzahn et al., 2012). For in vitro morphology quantifications, Wnt7a was used at a concentration of 50 ng/mL.

[3] = system: primary myoblasts; assay: Proliferation of primary myoblasts over five days; format: cell-based; conditions: 3 h exposure; various concentrations; over 5 days
Experimental: The proliferation of primary myoblasts following a 3 h exposure to various concentrations of Wnt7a was analyzed to control for the effect being due to changes in the cell cycle status of the transplanted cells.

[4] = system: mdx mice; assay: Transplantation of Wnt-treated mouse primary myoblasts into mdx mice; format: in vivo; conditions: 100,000 mouse primary myoblasts
Experimental: In a clinical setting, freshly isolated satellite cells are often not readily available. Therefore, the effect of 3 h Wnt7a loading on cultured primary mouse myoblasts that were subsequently transplanted into injured muscles of immunosuppressed mdx mice (FIG. S5 A) was examined. After transplantation of 100,000 cells, the number of dystrophin-expressing myofibers was increased by 72% in muscles that were injected with Wnt7a treated myoblasts (FIG. 13B). […] In addition, the mean maximal cluster distance (dispersion) increased from 1.5 mm for Veh., to 2.0 mm for Wnt7a (FIG. 13D).
Transplantation of zsGreen-expressing satellite cells or myoblasts into mdx mice was performed as previously described (Bentzinger et al., 2013c). Before transplantation the cells were treated for 3 h with Wnt7a, Wnt5a, or Wnt3a (R&D Systems) at a concentration of 50 ng/mL for freshly isolated satellite cells or with 100 ng/mL for cultured cells. Myoblasts expressing tdTomato were transplanted into uninjured muscles of C57BL/6 mice that were implanted with an osmotic pump (Alzet) delivering FK506 (Sigma) at 2.5 mg/kg/day 3 days prior to the transplantations. In some experiments, the injection site was marked with blue fluorescent microspheres (2 μm, Life Technologies) that were added at a concentration of 1:100 (vol/vol) to the cell suspension. 10 μl of the cell-microsphere suspension was injected into the TA of each mouse using a Hamilton syringe.
Muscles frozen in liquid nitrogen were cut into 12 μm cross-sections. Cross-sections and cells were either fixed with ethanol (100%) or 2% PFA for 5 min, permeabilized with 0.1% Triton/0.1 M glycine/PBS for 10 min, blocked with 5% horse serum in PBS for several hours, and incubated with specific primary antibody in blocking buffer overnight at 4° C. Samples were subsequently washed with PBS and stained with appropriate fluorescently labeled secondary antibodies for 1 h at room temperature. After washing with PBS, samples were mounted with Permafluor (Fisher). Antibodies were as follows: chicken anti-GFP (Abcam, ab13970), mouse anti-Pax7 (DSHB), mouse anti-Dystrophin (7A10, DSHB), mouse anti-Rac1 (05-389, Millipore), mouse anti-Tubulin (Sigma, T9026), rabbit anti-Dvl2 (3224, Cell Signaling), rabbit anti-zsGreen (Clontech, 632474), rabbit anti-Laminin (Sigma, L9393), rabbit anti-HA (Millipore, 07-221).

B1: Wnt7a: non-canonical Wnt polypeptide (R&D Systems) used to treat or load myogenic cells (protein, UniProt O00755 32-349, looked up)
Protein Wnt-7a: LGASIICNKIPGLAPRQRAICQSRPDAIIVIGEGSQMGLDECQFQFRNGRWNCSALGERTVFGKELKVGSREAAFTYAIIAAGVAHAITAACTQGNLSDCGCDKEKQGQYHRDEGWKWGGCSADIRYGIGFAKVFVDAREIKQNARTLMNLHNNEAGRKILEENMKLECKCHGVSGSCTTKTCWTTLPQFRELGYVLKDKYNEAVHVEPVRASRNKRPTFLKIKKPLSYRKPMDTDLVYIEKSPNYCEEDPVTGSVGTQGRACNKTAPQASGCDLMCCGRGYNTHQYARVWQCNCKFHWCCYVKCNTCSERTEMYTCK
In the case of B1, the “increase in number of tdTomato-expressing myofibers” value [1] is reported as 119%, the “increase in the abundance of triangular polarized cells” value ([2]; C2C12 myoblasts, vs vehicle treated cells expressing YFP, Wnt7a 50 ng/mL) is reported as 111% and the “increase in cell polarization” value ([2]; Fzd7-YFP expressing C2C12 cells treated with Wnt7a) is reported as 167%. The “rate of proliferation of primary myoblasts” value [3] was “No change in the rate of proliferation”, the “increase in number of dystrophin-expressing myofibers” value ([4]; 3 h loading (100 ng/mL), immunosuppressed mdx mice) was 72% and the “hypertrophy of dystrophin-expressing myofibers” value ([4]; 3 h loading, mdx mice) was 87%. The “mean maximal cluster distance (dispersion)” value ([4]; 3 h loading, mdx mice) was 2.0 mm.
